# Where a SMILES comes first, the peptide text is derived from it. Bridges are numbered along the chain shown (N, C = ends). The star is where a group is joined. DOTA = O=C(O)CN1CCN(CC(=O)O)CCN(CC(=O)*)CCN(CC(=O)O)CC1
# Columns and labels:
# [1] = tested on: carcinoma cell lines; experiment: In vitro binding of radiolabeled peptides to several carcinoma cell lines; type: cell-based, human
# Summary of the method: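 Cells seeded 48 h were incubated with ^125I-labeled peptide in serum-free medium for 10 or 60 min, alone or with unlabeled peptide (10^−4 to 10^−11 M); HNO97 kinetics, efflux and internalization (37° C and 4° C, acid strip) used ^177Lu-DOTA-SFITGv6. Gamma counting gave % applied dose per 10^6 cells.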
# [2] = Biodistribution, HNO97 xenografts; conditions: Balb/c nude, mouse, iv, 1 MBq, total radioactivity; for tissue to tissue ratio at 0.5 h / tissue to tissue ratio at 1 h / tissue to tissue ratio at 2 h / tissue to tissue ratio at 4 h / tissue to tissue ratio at 6 h: HNO97 xenografts; for tissue to tissue ratio at 0.5 h: 30 min
# Method: All experiments were conducted in compliance with the German animal protection laws. Eight week old Balb c/c nude mice (Charles River Laboratories) were inoculated subcutaneously at the right shoulder with 5×10^6 HNO97 cells in BD MatriGel™ (BD Bioscience). Xenografts were grown to a tumor diameter of 10-15 mm. For small animal-PET imaging mice were anesthetized using isoflurane inhalation and injected via tail-vein with 50 MBq (2 nmol) of the ^68Ga-labeled DOTA-SFITGv6 peptide (see above) solution in 100 μL PBS. Images were recorded on an Inveon small-animal PET scanner (Siemens) using a 60 min emission scan in list mode and a 10 min transmission scan. Images were taken in 3-dimensional (3D) mode and reconstructed iteratively with a fully 3D algorithm from a 256×256 matrix for viewing transaxial, coronal, and sagittal slices of 0.9 mm thickness. Pixel size was 0.38×0.38×0.79 mm3 and transaxial resolution obtained was 0.9 mm. For blocking experiments 100 μL of a 1 mM aqueous solution of SFITGv6 was pre-administered intraperitoneally 30 min before injection of the radiolabeled peptide. Biodistribution studies were performed after administration of 100 μL of a 20 nM ^177Lu-DOTA-SFITGv6 solution (1 MBq) as an intravenous bolus injection into the tail vein of the mice. After different time points (30 min to 6 hours) three animals, respectively, were sacrificed. Peripheral blood, heart, lung, spleen, liver, kidneys, muscle, brain, intestine, and injection site (tail, after intravenous injection only) were collected and weighted. Tissue-associated radioactivity was measured in a gamma counter (Berthold LB951G) and expressed as percentage of the injected dose per gram tissue (% ID/g).
# All animal experiments were conducted in compliance with the German animal protection laws. For in vivo small animal PET imaging and organ distribution studies eight-week old Balb/c nude mice (Charles River Laboratories) were inoculated subcutaneously at the right shoulder with a total of 5×10^6 tumor cells in MatriGel (BD Bioscience). Xenografts were grown until a tumor diameter of 10-15 mm was reached.
# 3-dimensional (3D) PET images of whole mice were captured by the Siemens Inveon PET scanner as described in Example 1. To assess the biodistribution 100 μL of a 20 nM solution (1 MBq) of ^177Lu-DOTA-SFLAP3 and ^177Lu-DOTA-SFITGv6 were administered as an intravenous bolus injection into the tail vein of mice. For each time point (30 min to 6 hours) we sacrificed a total of three animals, and subsequently collected peripheral blood, heart, lung, spleen, liver, kidneys, muscle, brain, and intestine. Tissues were weighed and respective radioactivity was measured by a gamma counter (LB951G, Berthold Technologies). Values were expressed as percentage of the injected dose radioactivity (MBq) per gram tissue (% ID/g).
# [3] = in vivo, uptake in the kidneys, hardly any clearance
# [4] = in vivo, Tumor-to-Intestine ratio
smiles,measurement,setting,value
"CSCC[C@@H]1NC(=O)[C@H](CC(C)C)NC(=O)[C@H](CC(=O)O)NC(=O)CNC(=O)[C@H](CCCNC(=N)N)NC(=O)[C@H](Cc2ccccc2)NC(=O)[C@H]([C@@H](C)O)NC(=O)[C@@H](NC(=O)[C@H](CCCNC(=N)N)NC(=O)CN)CSSC[C@@H](C(=O)N[C@@H](Cc2ccc(O)cc2)C(=O)N2CCC[C@H]2C(=O)N[C@@H](CC(=O)O)C(=O)O)NC(=O)[C@H](CC(C)C)NC(=O)[C@H](CCC(N)=O)NC1=O [SFITGv6, NH2-G-R-C1-T-F-R-G-D-L-M-Q-L-C1-Y-P-D-COOH] (H-GRCTFRGDLMQLCYPD-OH; disulfide 3-13)",binding after substitution of lysine (K) to leucine (L) in FRGDKMQL,"[1]; HNO97 and UM-UC-5 cells, ^125I-labeled, 60 min, versus SFPF-10",substantially increased the binding
same,tissue uptake,"[2]; in vivo, activity in the blood",< 1 %ID/g
same,tissue uptake,[2]; [3],~42 %ID/g
same,tissue uptake at 0.5 h,[2],> 6 %ID/g
same,tissue uptake at 6 h,[2],2.4 %ID/g
"CSCC[C@@H]1NC(=O)[C@H](CC(C)C)NC(=O)[C@H](CC(=O)O)NC(=O)CNC(=O)[C@H](CCCNC(=N)N)NC(=O)[C@H](Cc2ccccc2)NC(=O)[C@H]([C@@H](C)O)NC(=O)[C@@H](NC(=O)[C@H](CCCNC(=N)N)NC(=O)CNC(=O)CN2CCN(CC(=O)O)CCN(CC(=O)O)CCN(CC(=O)O)CC2)CSSC[C@@H](C(=O)N[C@@H](Cc2ccc(O)cc2)C(=O)N2CCC[C@H]2C(=O)N[C@@H](CC(=O)O)C(=O)O)NC(=O)[C@H](CC(C)C)NC(=O)[C@H](CCC(N)=O)NC1=O [^177Lu-DOTA-SFITGv6, metal not drawn] ({DOTA}-GRCTFRGDLMQLCYPD-OH; disulfide 3-13)",tissue to tissue ratio at 0.5 h,"[2]; in vivo, Tumor-to-Blood ratio",6.89 ± 1
same,tissue to tissue ratio at 1 h,"[2]; in vivo, Tumor-to-Blood ratio",12.9 ± 0.83
same,tissue to tissue ratio at 2 h,"[2]; in vivo, Tumor-to-Blood ratio",59.5 ± 1.04
same,tissue to tissue ratio at 4 h,"[2]; in vivo, Tumor-to-Blood ratio",98.86 ± 0.35
same,tissue to tissue ratio at 6 h,"[2]; in vivo, Tumor-to-Blood ratio",99.15 ± 0.51
same,tissue to tissue ratio at 0.5 h,"[2]; in vivo, Tumor-to-Brain ratio",190.9 ± 1
same,tissue to tissue ratio at 1 h,"[2]; in vivo, Tumor-to-Brain ratio",198.6 ± 0.82
same,tissue to tissue ratio at 2 h,"[2]; in vivo, Tumor-to-Brain ratio",250.3 ± 1.04
same,tissue to tissue ratio at 4 h,"[2]; in vivo, Tumor-to-Brain ratio",372.6 ± 0.35
same,tissue to tissue ratio at 6 h,"[2]; in vivo, Tumor-to-Brain ratio",424.9 ± 0.51
same,tissue to tissue ratio at 0.5 h,"[2]; in vivo, Tumor-to-Heart ratio",15.1 ± 1
same,tissue to tissue ratio at 1 h,"[2]; in vivo, Tumor-to-Heart ratio",21.9 ± 0.82
same,tissue to tissue ratio at 2 h,"[2]; in vivo, Tumor-to-Heart ratio",48.8 ± 1.04
same,tissue to tissue ratio at 4 h,"[2]; in vivo, Tumor-to-Heart ratio",67.5 ± 0.36
same,tissue to tissue ratio at 6 h,"[2]; in vivo, Tumor-to-Heart ratio",78.99 ± 0.51
same,tissue to tissue ratio at 0.5 h,[2]; [4],4.59 ± 1
same,tissue to tissue ratio at 1 h,[2]; [4],3.42 ± 0.83
same,tissue to tissue ratio at 2 h,[2]; [4],9.44 ± 1.05
same,tissue to tissue ratio at 4 h,[2]; [4],10.7 ± 0.36
same,tissue to tissue ratio at 6 h,[2]; [4],7.82 ± 0.51
same,tissue to tissue ratio at 0.5 h,"[2]; in vivo, Tumor-to-Kidney ratio",0.15 ± 3.73
same,tissue to tissue ratio at 1 h,"[2]; in vivo, Tumor-to-Kidney ratio",0.12 ± 2.21
same,tissue to tissue ratio at 2 h,"[2]; in vivo, Tumor-to-Kidney ratio",0.1 ± 3.11
same,tissue to tissue ratio at 4 h,"[2]; in vivo, Tumor-to-Kidney ratio",0.07 ± 2.69
same,tissue to tissue ratio at 6 h,"[2]; in vivo, Tumor-to-Kidney ratio",0.06 ± 2.58
same,tissue to tissue ratio at 0.5 h,"[2]; in vivo, Tumor-to-Liver ratio",20.8 ± 1
same,tissue to tissue ratio at 1 h,"[2]; in vivo, Tumor-to-Liver ratio",21.5 ± 0.82
same,tissue to tissue ratio at 2 h,"[2]; in vivo, Tumor-to-Liver ratio",25.8 ± 1.04
same,tissue to tissue ratio at 4 h,"[2]; in vivo, Tumor-to-Liver ratio",32.2 ± 0.36
same,tissue to tissue ratio at 6 h,"[2]; in vivo, Tumor-to-Liver ratio",17.6 ± 0.51
same,tissue to tissue ratio at 0.5 h,"[2]; in vivo, Tumor-to-Lung ratio",2.29 ± 1.14
same,tissue to tissue ratio at 1 h,"[2]; in vivo, Tumor-to-Lung ratio",3.81 ± 0.82
same,tissue to tissue ratio at 2 h,"[2]; in vivo, Tumor-to-Lung ratio",9.13 ± 1.05
same,tissue to tissue ratio at 4 h,"[2]; in vivo, Tumor-to-Lung ratio",10.3 ± 0.36
same,tissue to tissue ratio at 6 h,"[2]; in vivo, Tumor-to-Lung ratio",9.73 ± 0.51
same,tissue to tissue ratio at 0.5 h,"[2]; in vivo, Tumor-to-Muscle ratio",13.9 ± 1
same,tissue to tissue ratio at 1 h,"[2]; in vivo, Tumor-to-Muscle ratio",16.1 ± 0.83
same,tissue to tissue ratio at 2 h,"[2]; in vivo, Tumor-to-Muscle ratio",22.7 ± 1.04
same,tissue to tissue ratio at 4 h,"[2]; in vivo, Tumor-to-Muscle ratio",32.3 ± 0.36
same,tissue to tissue ratio at 6 h,"[2]; in vivo, Tumor-to-Muscle ratio",21.9 ± 0.51
same,tissue to tissue ratio at 0.5 h,"[2]; in vivo, Tumor-to-Spleen ratio",21.1 ± 1
same,tissue to tissue ratio at 1 h,"[2]; in vivo, Tumor-to-Spleen ratio",27.4 ± 0.82
same,tissue to tissue ratio at 2 h,"[2]; in vivo, Tumor-to-Spleen ratio",38.4 ± 1.04
same,tissue to tissue ratio at 4 h,"[2]; in vivo, Tumor-to-Spleen ratio",51.78 ± 0.36
same,tissue to tissue ratio at 6 h,"[2]; in vivo, Tumor-to-Spleen ratio",35.4 ± 0.51
same,tissue uptake,[2]; [3],~42 %ID/g
same,tissue uptake at 0.5 h,[2],6.22 ± 1 %ID/g
same,tissue uptake at 6 h,[2],2.43 ± 0.51 %ID/g
"CC(C)C[C@@H]1NC(=O)[C@H](CC(=O)O)NC(=O)CNC(=O)[C@H](CCCNC(=N)N)NC(=O)CNC(=O)[C@H]([C@@H](C)O)NC(=O)[C@@H](NC(=O)[C@H](CCCNC(=N)N)NC(=O)CNC(=O)CN2CCN(CC(=O)O)CCN(CC(=O)O)CCN(CC(=O)O)CC2)CSSC[C@@H](C(=O)N[C@@H](Cc2ccc(O)cc2)C(=O)N2CCC[C@H]2C(=O)N[C@@H](CC(=O)O)C(N)=O)NC(=O)[C@H](CC(C)C)NC(=O)[C@H](CCCNC(=N)N)NC(=O)CNC1=O [^177Lu-DOTA-SFLAP3, metal not drawn] ({DOTA}-GRCTGRGDLGRLCYPD-NH2; disulfide 3-13; N-terminus and C-terminus assumed)",binding/internalization late in efflux experiment,[1]; after 240 min (FIG. 17C),moderate renewed increase of binding/internalization
same,tissue uptake at 1 h,[2]; in vivo,9.1 ± 1.2 %ID/g
same,tissue uptake at 6 h,[2]; in vivo,5.8 ± 1.44 %ID/g

# Reference: patent US20200131227A1, “POLYPEPTIDE WITH TUMOUR BINDING ACTIVITY” (RUPRECHT-KARLS-UNIVERSITÄT HEIDELBERG, priority 2017, published 2020)
